For data set [1], the target named is CaMKIIα/Ca^2+/CaM complex (human) (UniProt Q9UQM7). The data set is described as follows: AUC; sedimentation velocity of the CaMKII/Ca2+/CaM complexes, 4°C, 10 mM HEPES pH 7.5, 300 mM NaCl, 1 mM CaCl2, 5 mM DTT; heterodimer to heterotetramer, KD estimated from the proportions of the peaks.
The target in data set [2] is CaMKIIγ oligomerization domain (human). As to the kind of experiment: crystal structure; isolated oligomerization domains of human CaMKIIγ (2.7 Å) and CaMKIIδ (2.8 Å).
Data set [3] has as its target CaMKIIδ/Ca^2+/CaM complex (human) (UniProt Q13557). The data set is described as follows: AUC; sedimentation velocity of the CaMKII/Ca2+/CaM complexes, 4°C, 10 mM HEPES pH 7.5, 300 mM NaCl, 1 mM CaCl2, 5 mM DTT; heterodimer to heterotetramer, KD estimated from the proportions of the peaks.
The target in data set [4] is CaMKI catalytic domain (human) (UniProt Q8IU85). As to the kind of experiment: ITC; VP-ITC, 10°C, 20 mM HEPES pH 7.5, 150 mM NaCl, 5 mM DTT, 1 mM CaCl2; Ca2+/CaM titrated into the kinase domains, or the peptide titrated into Ca2+/CaM; single binding site model. Background: In ITC the heat of successive injections is recorded.
The target in data set [5] is CaMKIIγ catalytic and regulatory domain (human) (UniProt Q13555). The description is as above.
The target of data set [6] is CaMKIIα catalytic domain (human) (UniProt Q9UQM7). Described as above.
In data set [7] the target is CaMKIV catalytic domain (human) (UniProt Q16566). Described as above.
Data set [8] deals with CaMKIIβ catalytic domain (human) (UniProt Q13554). Described as above.
Data set [9] deals with the molecule itself. As to the kind of experiment: crystal structure; isolated oligomerization domains of human CaMKIIγ (2.7 Å) and CaMKIIδ (2.8 Å).

Where “and” joins values, the source holds several entries; their conditions need not be identical. Identical values can stand only once.

Sequence of CaMKI catalytic domain (human) (Q8IU85 1-333): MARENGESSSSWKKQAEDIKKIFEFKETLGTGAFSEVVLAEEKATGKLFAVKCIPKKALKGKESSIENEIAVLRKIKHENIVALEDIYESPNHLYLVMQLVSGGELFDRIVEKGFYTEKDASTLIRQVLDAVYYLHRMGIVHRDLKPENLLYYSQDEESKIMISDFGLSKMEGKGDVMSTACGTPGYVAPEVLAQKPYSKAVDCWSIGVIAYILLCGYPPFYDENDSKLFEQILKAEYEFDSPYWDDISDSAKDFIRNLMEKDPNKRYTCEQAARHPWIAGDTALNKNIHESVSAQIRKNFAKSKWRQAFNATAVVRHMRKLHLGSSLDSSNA
Sequence of CaMKIV catalytic domain (human) (Q16566 15-340): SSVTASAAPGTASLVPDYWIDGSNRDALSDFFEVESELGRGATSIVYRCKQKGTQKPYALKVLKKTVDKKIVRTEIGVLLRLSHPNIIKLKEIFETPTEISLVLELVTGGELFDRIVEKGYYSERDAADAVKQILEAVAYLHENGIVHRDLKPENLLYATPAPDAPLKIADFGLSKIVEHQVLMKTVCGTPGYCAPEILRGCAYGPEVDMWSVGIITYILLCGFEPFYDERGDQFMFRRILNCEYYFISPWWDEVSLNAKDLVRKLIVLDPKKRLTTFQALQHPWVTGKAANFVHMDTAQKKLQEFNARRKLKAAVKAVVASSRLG
Sequence of CaMKIIβ catalytic domain (human) (Q13554 11-302): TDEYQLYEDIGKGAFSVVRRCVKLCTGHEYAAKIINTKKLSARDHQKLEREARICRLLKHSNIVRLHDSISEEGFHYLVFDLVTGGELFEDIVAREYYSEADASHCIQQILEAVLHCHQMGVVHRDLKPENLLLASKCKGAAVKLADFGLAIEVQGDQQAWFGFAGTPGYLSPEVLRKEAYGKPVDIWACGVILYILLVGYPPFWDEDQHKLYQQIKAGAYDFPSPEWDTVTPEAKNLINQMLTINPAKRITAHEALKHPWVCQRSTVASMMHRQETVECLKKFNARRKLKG
Sequence of CaMKIIγ catalytic and regulatory domain (human) (Q13555 5-317): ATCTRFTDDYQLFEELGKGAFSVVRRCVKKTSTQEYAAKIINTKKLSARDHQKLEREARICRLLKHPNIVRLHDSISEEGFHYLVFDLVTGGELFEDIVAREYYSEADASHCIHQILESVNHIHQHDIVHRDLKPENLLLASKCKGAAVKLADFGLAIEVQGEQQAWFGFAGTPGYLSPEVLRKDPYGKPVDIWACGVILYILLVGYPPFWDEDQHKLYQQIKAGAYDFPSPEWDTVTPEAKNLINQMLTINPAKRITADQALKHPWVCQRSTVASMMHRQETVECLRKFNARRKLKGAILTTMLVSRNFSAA

In the case of “CaMKIIα/Ca^2+/CaM complex (from UniProt Q9UQM7 13-301; P0DP23 1-149)”, in [1], the Kd was 120 µM.
“CaMKIIγ oligomerization domain (domain or fragment)” gave a stoichiometry N in data set [2] of 12.
Take “CaMKIIδ/Ca^2+/CaM complex (from UniProt Q13557 11-335; P0DP23 1-149)”: in data set [3], the Kd is 50 µM.
As for “calmodulin (Ca^2+/CaM) (from UniProt P0DP23 1-149) (natural protein)”, the dH is -24.3 kJ/mol and -21.3 kJ/mol in data set [4]; 36 kJ/mol in [5]; 50.6 kJ/mol in [6]; -42.7 kJ/mol in data set [7]; 37.2 kJ/mol in data set [8]. The stoichiometry N came out at 0.93 in [4]; 0.981 in [5]; 0.863 in data set [6]; 0.83 in data set [7]; 0.922 in data set [8].

B1: CaMKIIδ oligomerization domain (domain or fragment, human, UniProt Q13557 334-475, looked up)
chain: SNTTIEDEDVKARKQEIIKVTEQLIEAINNGDFEAYTKICDPGLTAFEPEALGNLVEGMDFHRFYFENALSKSNKPIHTIILNPHVHLVGDDAACIAYIRLTQYMDGSGMPKTMQSEETRVWHRRDGKWQNVHFHRSGSPTV
For the molecule B1, in data set [9], the “stoichiometry N” value turned out to be 14.

By Kd is commonly meant a measure of binding affinity in units of concentration. The term stoichiometry N denotes the number of molecules, sites or subunits per partner or assembly.
